Structures can show the parent of a compound that is named as a salt.
Legend:
[1] = molecular target: MT-H-Eno (M.tb H37Rv Enolase) (Mycobacterium tuberculosis, UniProt P9WNL1)
[2] = molecular target: T1, MT-PykA-H (M.tb H37Rv PykA) (Mycobacterium tuberculosis, UniProt P9WKE5)
T1 construct: gene pyk

[3] = molecular target: transferrin-biotin (human) (UniProt P02787); assay: pull-down
[4] = tested on: O=C[C@H](O)COP(=O)(O)O; assay: purified protein; conditions: pH 8.5; 25.0 °C
[5] = tested on: NC(=O)c1ccc[n+]([C@@H]2O[C@H](COP(=O)(O)OP(=O)(O)OC[C@H]3O[C@@H](n4cnc5c(N)ncnc54)[C@H](O)[C@@H]3O)[C@@H](O)[C@H]2O)c1; assay: purified protein; conditions: pH 8.5; 25.0 °C

Chain of transferrin-biotin (human) (P02787 20-698): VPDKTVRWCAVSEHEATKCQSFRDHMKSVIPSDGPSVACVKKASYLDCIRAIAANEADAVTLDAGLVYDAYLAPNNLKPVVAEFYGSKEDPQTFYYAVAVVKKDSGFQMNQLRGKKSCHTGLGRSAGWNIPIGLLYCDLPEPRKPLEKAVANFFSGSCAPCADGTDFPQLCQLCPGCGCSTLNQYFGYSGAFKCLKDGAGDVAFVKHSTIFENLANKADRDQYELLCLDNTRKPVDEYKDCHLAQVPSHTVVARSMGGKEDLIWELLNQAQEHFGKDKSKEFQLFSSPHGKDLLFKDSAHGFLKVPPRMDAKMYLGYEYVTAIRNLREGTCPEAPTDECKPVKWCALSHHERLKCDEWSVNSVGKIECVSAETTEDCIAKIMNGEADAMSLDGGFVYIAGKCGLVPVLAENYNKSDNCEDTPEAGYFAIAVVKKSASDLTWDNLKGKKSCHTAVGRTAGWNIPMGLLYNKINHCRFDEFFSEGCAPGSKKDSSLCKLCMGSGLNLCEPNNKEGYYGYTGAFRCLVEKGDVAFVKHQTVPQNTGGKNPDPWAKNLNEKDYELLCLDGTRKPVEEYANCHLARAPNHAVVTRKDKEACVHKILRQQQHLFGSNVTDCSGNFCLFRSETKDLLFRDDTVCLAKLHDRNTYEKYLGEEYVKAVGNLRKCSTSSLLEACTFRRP
T1 sequence (P9WKE5 whole entry, looked up): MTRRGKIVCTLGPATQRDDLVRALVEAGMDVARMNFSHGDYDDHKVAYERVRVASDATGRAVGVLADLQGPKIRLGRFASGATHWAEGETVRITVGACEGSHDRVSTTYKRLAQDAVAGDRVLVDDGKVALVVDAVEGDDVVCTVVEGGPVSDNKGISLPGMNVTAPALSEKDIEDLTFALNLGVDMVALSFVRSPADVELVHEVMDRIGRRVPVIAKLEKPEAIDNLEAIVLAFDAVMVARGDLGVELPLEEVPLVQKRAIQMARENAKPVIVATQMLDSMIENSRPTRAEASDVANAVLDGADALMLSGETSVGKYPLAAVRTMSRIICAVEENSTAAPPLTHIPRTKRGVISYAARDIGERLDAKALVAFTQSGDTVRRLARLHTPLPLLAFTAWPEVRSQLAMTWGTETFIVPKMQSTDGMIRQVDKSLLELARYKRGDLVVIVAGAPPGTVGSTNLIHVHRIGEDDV
Chain of MT-H-Eno (M.tb H37Rv Enolase) (P9WNL1 whole entry, looked up): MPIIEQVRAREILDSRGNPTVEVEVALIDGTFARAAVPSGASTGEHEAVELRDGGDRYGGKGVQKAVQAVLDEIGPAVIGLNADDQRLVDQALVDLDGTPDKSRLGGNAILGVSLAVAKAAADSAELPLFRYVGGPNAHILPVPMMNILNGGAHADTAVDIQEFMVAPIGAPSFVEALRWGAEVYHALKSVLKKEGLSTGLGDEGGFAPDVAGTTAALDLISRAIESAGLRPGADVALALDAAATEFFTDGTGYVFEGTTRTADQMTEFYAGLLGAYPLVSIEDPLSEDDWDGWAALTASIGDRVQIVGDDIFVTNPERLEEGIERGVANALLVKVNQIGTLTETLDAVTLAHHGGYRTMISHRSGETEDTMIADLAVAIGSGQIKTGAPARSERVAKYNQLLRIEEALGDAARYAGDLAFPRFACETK

O=C(O)[C@@H](CO)OP(=O)(O)O [D (+)-2 phosphoglyceric acid sodium salt]
absorbance increase at 240 nm [1]: buffer lacking the specific substrate 2-PG

C=C(OP(=O)(O)O)C(=O)O [sodium phosphoenol pyruvate]
lactate dehydrogenase-coupled NADH oxidation at 340 nm [2]: buffer lacking the specific substrate sodium phosphoenol pyruvate

EC-H-GAPDH: recombinant M.tb H37Rv GAPDH with an N-terminal His tag, expressed in E. coli (from UniProt P9WN83 1-339) (enzyme)
percent decrease of binding against MT-GAPDH-H (densitometry) [3]: 70%

MT-GAPDH-H (M.tb rGAPDH) (Mycobacterium tuberculosis H37Rv)
Km [4]: 169.6 ± 10.53 µM
kcat [4]: 0.00332 ± 0.0002 s⁻¹
Km [5]: 101.2 ± 8.9 µM
